According to PMC2172640 (The Journal of Cell Biology, 2003):
Values belong to the binder of their own block, whether it stands above or below them.

Biological target: T1, HA95 (human (endogenous in Bjab and HeLa), UniProt Q9ULX6 1-646)
T1 sequence (looked up): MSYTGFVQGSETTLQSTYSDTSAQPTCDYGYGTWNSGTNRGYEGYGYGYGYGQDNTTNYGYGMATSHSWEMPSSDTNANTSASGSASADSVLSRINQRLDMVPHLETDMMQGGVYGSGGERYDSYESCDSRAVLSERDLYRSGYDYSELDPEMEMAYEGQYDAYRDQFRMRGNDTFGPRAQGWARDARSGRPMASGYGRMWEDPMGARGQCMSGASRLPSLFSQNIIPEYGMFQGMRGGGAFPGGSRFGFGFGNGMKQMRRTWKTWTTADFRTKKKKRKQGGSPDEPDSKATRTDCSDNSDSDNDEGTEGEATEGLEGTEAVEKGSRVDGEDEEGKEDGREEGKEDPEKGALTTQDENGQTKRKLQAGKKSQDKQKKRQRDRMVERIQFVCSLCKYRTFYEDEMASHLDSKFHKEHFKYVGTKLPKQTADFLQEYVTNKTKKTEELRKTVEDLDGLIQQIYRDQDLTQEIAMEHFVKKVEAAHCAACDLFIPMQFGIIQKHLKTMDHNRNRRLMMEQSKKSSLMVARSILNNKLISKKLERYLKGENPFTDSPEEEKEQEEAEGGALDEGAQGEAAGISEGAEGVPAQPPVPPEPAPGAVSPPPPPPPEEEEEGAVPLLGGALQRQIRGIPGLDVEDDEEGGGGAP
Assay: far-Western, overlay or dot blot

B1: GST–LAP2β(1–452) (domain or fragment, UniProt Q62733 1-452, looked up)
chain: MPEFLEDPSVLTKDKLKSELVANNVTLPAGEQRKDVYVQLYLQHLTARNRPPLAAGANSKGPPDFSSDEEREPTPVLGSGASVGRGRGAVGRKATKKTDKPRPEDKDDLDVTELSNEELLEQLVRYGVNPGPIVGTTRKLYEKKLLKLREQGAESRSSTPLPTVSSSAENTRQNGSNDSDRYSDNDEDSKIELKLEKREPLKGRAKTPVTLKQRRIEHNQSYSEAGVTETEWTSGSSKGGPLQALTRESTRGSRRTPRRRVEPSQHFRVDGAVISESTPIAETIKASSNDSLVANRLTGNFKHASSILPITEFSDITRRTPKKPLTRAEVGEKTEERRVERDILKEMFPYEASTPTGISASCRRPIKGAAGRPLELSDFRMEESFSSKYVPKYVPLADVKSEKTKKGRSVPMWIKMLLFALVAGFLFLVYQAMETNQGNPFTNFLQDTKISN
binding result: binds

B2: GST–LAP2β(299–397) (domain or fragment, UniProt Q62733 299-397, looked up)
chain: GNFKHASSILPITEFSDITRRTPKKPLTRAEVGEKTEERRVERDILKEMFPYEASTPTGISASCRRPIKGAAGRPLELSDFRMEESFSSKYVPKYVPLA
binding result: binds

B3: GST–LAP2β(1–298) (domain or fragment, UniProt Q62733 1-298, looked up)
chain: MPEFLEDPSVLTKDKLKSELVANNVTLPAGEQRKDVYVQLYLQHLTARNRPPLAAGANSKGPPDFSSDEEREPTPVLGSGASVGRGRGAVGRKATKKTDKPRPEDKDDLDVTELSNEELLEQLVRYGVNPGPIVGTTRKLYEKKLLKLREQGAESRSSTPLPTVSSSAENTRQNGSNDSDRYSDNDEDSKIELKLEKREPLKGRAKTPVTLKQRRIEHNQSYSEAGVTETEWTSGSSKGGPLQALTRESTRGSRRTPRRRVEPSQHFRVDGAVISESTPIAETIKASSNDSLVANRLT
binding result: binds

B4: GST–LAP2β(243–373) (domain or fragment, UniProt Q62733 243-373, looked up)
chain: QALTRESTRGSRRTPRRRVEPSQHFRVDGAVISESTPIAETIKASSNDSLVANRLTGNFKHASSILPITEFSDITRRTPKKPLTRAEVGEKTEERRVERDILKEMFPYEASTPTGISASCRRPIKGAAGRP
binding result: binds

B5: GST–LAP2β(1–397) (domain or fragment, UniProt Q62733 1-397, looked up)
chain: MPEFLEDPSVLTKDKLKSELVANNVTLPAGEQRKDVYVQLYLQHLTARNRPPLAAGANSKGPPDFSSDEEREPTPVLGSGASVGRGRGAVGRKATKKTDKPRPEDKDDLDVTELSNEELLEQLVRYGVNPGPIVGTTRKLYEKKLLKLREQGAESRSSTPLPTVSSSAENTRQNGSNDSDRYSDNDEDSKIELKLEKREPLKGRAKTPVTLKQRRIEHNQSYSEAGVTETEWTSGSSKGGPLQALTRESTRGSRRTPRRRVEPSQHFRVDGAVISESTPIAETIKASSNDSLVANRLTGNFKHASSILPITEFSDITRRTPKKPLTRAEVGEKTEERRVERDILKEMFPYEASTPTGISASCRRPIKGAAGRPLELSDFRMEESFSSKYVPKYVPLA
binding result: binds

B6: GST–LAP2β(137–373) (domain or fragment, UniProt Q62733 137-373, looked up)
chain: TRKLYEKKLLKLREQGAESRSSTPLPTVSSSAENTRQNGSNDSDRYSDNDEDSKIELKLEKREPLKGRAKTPVTLKQRRIEHNQSYSEAGVTETEWTSGSSKGGPLQALTRESTRGSRRTPRRRVEPSQHFRVDGAVISESTPIAETIKASSNDSLVANRLTGNFKHASSILPITEFSDITRRTPKKPLTRAEVGEKTEERRVERDILKEMFPYEASTPTGISASCRRPIKGAAGRP
binding result: binds

Further lines, results first:

binding result: binds
B7: GST–LAP2β(137–298) (domain or fragment, UniProt Q62733 137-298, looked up)
chain: TRKLYEKKLLKLREQGAESRSSTPLPTVSSSAENTRQNGSNDSDRYSDNDEDSKIELKLEKREPLKGRAKTPVTLKQRRIEHNQSYSEAGVTETEWTSGSSKGGPLQALTRESTRGSRRTPRRRVEPSQHFRVDGAVISESTPIAETIKASSNDSLVANRLT

binding result: binds
B8: GST–LAP2β(299–373) (domain or fragment, UniProt Q62733 299-373, looked up)
chain: GNFKHASSILPITEFSDITRRTPKKPLTRAEVGEKTEERRVERDILKEMFPYEASTPTGISASCRRPIKGAAGRP

binding result: binds
B9: GST–LAP2β(243–397) (domain or fragment, UniProt Q62733 243-397, looked up)
chain: QALTRESTRGSRRTPRRRVEPSQHFRVDGAVISESTPIAETIKASSNDSLVANRLTGNFKHASSILPITEFSDITRRTPKKPLTRAEVGEKTEERRVERDILKEMFPYEASTPTGISASCRRPIKGAAGRPLELSDFRMEESFSSKYVPKYVPLA
